Where a chain is given by its changes, count along the chain named. In names and notes the source's numbering stands.
B1: GBR VH5(K3Q,V37A)VL1 (antibody, human IgG1, kappa)
heavy: not shown
light: EIVLTQSPATLSLSPGERATLSCSASSSVSYMHWYQQKPGQAPRLLIYTTSNLASGIPARFSGSGSGTDFTLTISSLEPEDFAVYYCHQWSSYPWTFGQGTKLEIKRTVAAPSVFIFPPSDEQLKSGTASVVCLLNNFYPREAKVQWKVDNALQSGNSQESVTEQDSKDSTYSLSSTLTLSKADYEKHKVYACEVTHQGLSSPVTKSFNRGEC
notes: IGHG1, kappa
B2: GBR VH5(V37A)VL1 (antibody, human IgG1, kappa)
heavy: not shown
light: B1 light
notes: IGHG1, kappa; also called GBR VH5(V37A)VL1 IGHG1 antibody; GBR VH5 (V37A)VL1 antibody
B3: GBR VH5(K3Q, V37A, R44G)VL1 (antibody, human IgG1, kappa, V domains shown)
VH: EVQLLESGGGLVQPGGSLRLSCAASGFTFSTYTMSWARQTPGKGLEWVAYISKGGGSTYYPDTVKGRFTISRDNSKNTLYLQMNSLRAEDTAVYYCARGAMYGNDFFYPMDYWGQGTTVTVSS
VL: EIVLTQSPATLSLSPGERATLSCSASSSVSYMHWYQQKPGQAPRLLIYTTSNLASGIPARFSGSGSGTDFTLTISSLEPEDFAVYYCHQWSSYPWTFGQGTKLEIKR
notes: IGHG1, kappa
B4: GBR VH5(K3Q, V37A, T40A, P60A, T62S)VL1 (antibody, human IgG1, kappa, V domains shown)
VH: B3 VH with T40A, G44R, P61A, T63S
VL: B3 VL
notes: IGHG1, kappa
B5: GBR VH5(R94K)VL1 (antibody, human IgG1, kappa)
heavy: not shown
light: B1 light
notes: IGHG1, kappa
B6: GBR VH5(V37A)VL1 IGHG4 S228P (antibody, human IgG4 S228P, kappa)
heavy: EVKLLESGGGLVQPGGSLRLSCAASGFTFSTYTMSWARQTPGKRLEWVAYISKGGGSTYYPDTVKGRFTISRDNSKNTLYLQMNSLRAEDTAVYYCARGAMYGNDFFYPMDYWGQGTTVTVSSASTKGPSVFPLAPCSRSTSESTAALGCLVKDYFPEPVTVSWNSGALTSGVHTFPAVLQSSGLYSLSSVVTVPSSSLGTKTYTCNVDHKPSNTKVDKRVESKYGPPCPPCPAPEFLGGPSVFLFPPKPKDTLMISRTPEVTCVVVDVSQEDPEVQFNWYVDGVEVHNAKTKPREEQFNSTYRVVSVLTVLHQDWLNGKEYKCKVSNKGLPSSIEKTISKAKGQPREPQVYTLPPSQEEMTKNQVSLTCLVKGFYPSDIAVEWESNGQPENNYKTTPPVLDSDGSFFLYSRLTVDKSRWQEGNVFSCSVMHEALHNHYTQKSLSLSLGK
light: B1 light
notes: IGHG4 isotype with S228P (EU) hinge substitution, kappa
B7: GBR VH5(K3Q,V37A)VL1 IGHG4 S228P (antibody, human IgG4 S228P, kappa)
heavy: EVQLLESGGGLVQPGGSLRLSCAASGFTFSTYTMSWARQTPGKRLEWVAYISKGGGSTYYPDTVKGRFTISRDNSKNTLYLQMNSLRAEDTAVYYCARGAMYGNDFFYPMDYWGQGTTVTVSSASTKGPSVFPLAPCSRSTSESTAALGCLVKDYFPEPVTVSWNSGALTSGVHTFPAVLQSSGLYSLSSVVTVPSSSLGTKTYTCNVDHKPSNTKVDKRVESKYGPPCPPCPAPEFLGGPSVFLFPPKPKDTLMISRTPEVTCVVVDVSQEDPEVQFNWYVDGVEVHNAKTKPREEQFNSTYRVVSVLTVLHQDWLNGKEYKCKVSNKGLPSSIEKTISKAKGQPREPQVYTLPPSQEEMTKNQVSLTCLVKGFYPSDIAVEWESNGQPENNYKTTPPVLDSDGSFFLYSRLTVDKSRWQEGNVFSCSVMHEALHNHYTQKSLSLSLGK
light: B1 light
notes: as for B6
B8: BXhVH1VL1 (antibody, human IgG1, kappa, V domains shown)
VH: B3 VH with A37V, T40A, A49S, R98K
VL: B3 VL
notes: IGHG1, kappa
B9: BXhVH5VL3 (antibody, human IgG1, kappa, V domains shown)
VH: B3 VH with Q3K, A37V, G44R
VL: B3 VL with E1Q, A42S, A59S, D69F, F70Y, Q99G
B10: BXhVH3VL3 (antibody, human IgG1, kappa, V domains shown)
VH: B3 VH with A37V, G44R, R98K
VL: B3 VL with E1Q, A42S, A59S, D69F, F70Y, Q99G
notes: IGHG1, kappa
B11: GBR VH1(V37A)VL1 (antibody, human IgG1, kappa, V domains shown)
VH: B3 VH with T40A, A49S, R98K
VL: B3 VL
notes: IGHG1, kappa
B12: BXhVH3VL1 (antibody, human IgG1, kappa)
heavy: not shown
light: B1 light
notes: IGHG1, kappa
B13: GBR VH3(V37A)VL1 (antibody, human IgG1, kappa, V domains shown)
VH: B3 VH with G44R, R98K
VL: B3 VL
notes: IGHG1, kappa
B14: GBR VH5(V37A)VL3 (antibody, human IgG1, kappa, V domains shown)
VH: B3 VH with Q3K, G44R
VL: B3 VL with E1Q, A42S, A59S, D69F, F70Y, Q99G
notes: IGHG1, kappa
B15: GBR VH3(V37A)VL3 (antibody, human IgG1, kappa, V domains shown)
VH: B3 VH with G44R, R98K
VL: B3 VL with E1Q, A42S, A59S, D69F, F70Y, Q99G
notes: IGHG1, kappa
B16: MNAC13 mouse antibody (antibody, mouse IgG1, kappa, V domains shown)
VH: EVKLVESGGGLVQPGGSLKLSCAASGFTFSTYTMSWARQTPEKRLEWVAYISKGGGSTYYPDTVKGRFTISRDNAKNTLYLQMSSLKSEDTALYYCARGAMYGNDFFYPMDYWGQGTSVTVSS
VL: QIVLTQSPAIMSASLGEEITLTCSASSSVSYMHWYQQKSGTSPKLLIYTTSNLASGVPSRFSGSGSGTFYSLTISSVEAEDAADYYCHQWSSYPWTFGGGTKLEIKA
notes: Mouse monoclonal anti-TrkA antibody; also called parental murine antibody

molecular target: T1, monovalent human TrkA extracellular region (human, UniProt P04629 33-423); assay: SPR, against BXhVH5VL1
T1 construct: also called recombinant monovalent human TrkA extracellular domain
Description: (§1) SPR analysis was used to measure the association and dissociation rate constants for the binding kinetics of the different antibodies (mouse and humanized antibodies). The binding kinetics of the mouse antibody and humanized variants were measured on a BIACORE 2000 instrument (GE Healthcare Europe GmbH, Glattbrugg, Switzerland) at room temperature, and analyzed with the BiaEvaluation software (v4.1, GE Healthcare Europe GmbH, Glattbrugg, Switzerland).
(§2) Antibodies were immobilized via capture of their Fc portion to allow for correct orientation on the sensor chip surface. A monoclonal mouse anti-human IgG (Fc) antibody sensor chip was used to capture all humanized antibodies regardless of their isotypes (Human Antibody Capture Kit, catalogue number BR-1008-39, GE Healthcare Europe GmbH), and a polyclonal rabbit anti-mouse immunoglobulin sensor chip was used to capture the MNAC13 mouse antibody (Mouse Antibody Capture Kit, catalogue number BR-1008-38, GE Healthcare Europe GmbH).
(§3) Data (sensorgram: fc2-fc1) were fitted with a 1:1 Langmuir model with mass transfer in spite of having little mass transfer limitation in mass transfer tests. To account for the experimental variations in captured antibody at the beginning of each measurement, the Rmax value was set to local in all fits. Dissociation times were of at least 350 seconds. Measurements were performed in triplicate, and included zero-concentration samples for referencing. Both Chi2 and residual values were used to evaluate the quality of a fit between the experimental data and individual binding models.

T1 sequence (P04629 33-423): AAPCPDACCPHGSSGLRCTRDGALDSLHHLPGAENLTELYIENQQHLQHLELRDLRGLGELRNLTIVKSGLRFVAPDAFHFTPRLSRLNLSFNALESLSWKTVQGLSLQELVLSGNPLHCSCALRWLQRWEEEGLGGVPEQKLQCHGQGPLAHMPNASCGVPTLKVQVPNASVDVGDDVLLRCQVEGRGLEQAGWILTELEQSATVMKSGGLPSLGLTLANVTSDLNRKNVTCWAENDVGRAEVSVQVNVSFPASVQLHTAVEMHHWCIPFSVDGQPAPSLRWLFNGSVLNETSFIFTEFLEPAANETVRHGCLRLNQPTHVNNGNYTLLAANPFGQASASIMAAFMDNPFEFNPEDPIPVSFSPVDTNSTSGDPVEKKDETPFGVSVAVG

| fold decrease of KD against BXhVH5VL1 [fold] | fold increase in affinity against BXhVH5VL1 [fold] | Binder |
| --- | --- | --- |
| 2.7 |  | B1 |
| 2.5 | 2.5 | B2 |

molecular target: T1, monovalent human TrkA extracellular …; assay: SPR (BIAcore 2000), antibody captured via Fc, monovalent TrkA extracellular region as analyte
Description: as §1, §2, §3

| Kd [nM] | Binder |
| --- | --- |
| 20 | B3 |
| 15.4 | B1 |
| 16 | B2 |
| 48 | B4 |
| 52 | B5 |
| 15 | B6 |
| 15 | B7 |

molecular target: T1, monovalent human TrkA extracellular …; assay: as above; remark: another data set of the same source
Description: as §1, §2, §3

| Kd [nM] | koff [s⁻¹] | kon [M⁻¹ s⁻¹] | Binder |
| --- | --- | --- | --- |
| 426 | 0.0133 | 31300 | B8 |
| 15.4 | 0.00262 | 170000 | B1 |
| 16 | 0.00225 | 140000 | B2 |
| 63 | 0.00395 | 62300 | B9 |
| 134 | 0.00459 | 31400 | B10 |
| 338 | 0.00663 | 19600 | B11 |
| 133 | 0.00619 | 46500 | B12 |
| 123 | 0.00471 | 38200 | B13 |
| 28 | 0.00205 | 74500 | B14 |
| 95 | 0.00295 | 31000 | B15 |

molecular target: T1, monovalent human TrkA extracellular …; assay: SPR (BIAcore 2000), antibody captured via anti-mouse immunoglobulin, monovalent TrkA extracellular region as analyte
Description: as §1, §2, §3

| Kd [nM] | koff [s⁻¹] | kon [M⁻¹ s⁻¹] | Binder |
| --- | --- | --- | --- |
| 18 | 0.00109 | 60200 | B16 |

Source: patent publication US20170362327A1 (GLENMARK PHARMACEUTICALS S A, published 2017)
